Results from article PMC12455589, “Abundant bacterial nucleoid-associated protein H-NS limits plasmid transfer through mechanical modification of DNA”.

Target: T1, H-NS (Escherichia coli, UniProt P0ACF8 1-137)
T1 sequence: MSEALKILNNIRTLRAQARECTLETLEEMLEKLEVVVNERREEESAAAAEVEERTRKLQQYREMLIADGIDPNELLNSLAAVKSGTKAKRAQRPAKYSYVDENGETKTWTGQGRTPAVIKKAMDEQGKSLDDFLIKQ
Assay: EMSA; 0-80 ng/uL protein; 10 mM Mg2+; EMSA: 10 mM Tris-HCl pH 7.9, 125 mM KCl, 10 mM MgCl2, 0.1 mM DTT, 2.5% glycerol, 30 min, room temperature; bridging: 20 mM Tris-HCl pH 7.4, 150 mM NaCl, 1 mM DTT, 5% glycerol, 0.05% Tween 20, room temperature
Settings: protein: recombinant; tags: His6 (N-terminal); chain copies: 2; blunt

B1: HBS dsDNA probe (P21/P22) (dsDNA)
DNA 1: TAATTATTATAACTAAAAGTTTCTTTAATAATAAAACGAATAACTTGCAGATTTGAAAT
DNA 2: ATTTCAAATCTGCAAGTTATTCGTTTTATTATTAAAGAAACTTTTAGTTATAATAATTA
**Q.** Does B1 bind?
**A.** binds
